From the supplement of paper PMC11908140

B1: library; numbered along this chain (parent)
chain: MRKPRAAVGSGHRKQAASQEGRQKHAKNNSQAKPSACDGLARQPEEVVLQASVSSYHLFRDVAEVTAFRGSLLSWYDQEKRDLPWRRRAEDEMDLDRRAYAVWVSEVMLQQTQVATVINYYTGWMQKWPTLQDLASASLEEVNQLWAGLGYYSRGRRLQEGARKVVEELGGHMPRTAETLQQLLPGVGRYTAGAIASIAFGQATGVVDGNVARVLCRVRAIGADPSSTLVSQQLWGLAQQLVDPARPGDFNQAAMELGATVCTPQRPLCSQCPVESLCRARQRVEQEQLLASGSLSGSPDVEECAPNTGQCHLCLPPSEPWDQTLGVVNFPRKASRKPPREESSATCVLEQPGALGAQILLVQRPNSGLLAGLWEFPSVTWEPSEQLQRKALLQELQRWAGPLPATHLRHLGEVVHTFSHIKLTYQVYGLALEGQTPVTTVPPGARWLTQEEFHTAAVSTAMKKVFRVYQGQQPGTCMGSKRSQVSSPCSRKKPRMGQQVLDNFFRSHISTDAHSLNSAAQ

Variants of: B1
Assay: 8OG:A repair function score (normalized; synonymous = 0, nonsense = -1) (normalized log-likelihood score); higher = more repair activity (WT-like)
Settings: with 8OG:A DNA repair reporter (GFP) in HEK-293 MUTYH KO cells
Summary of the method: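 GFP+ (repair) and GFP− bins of viable mCherry+ cells were collected at 72 h from MUTYH knockout HEK-293 cells bearing lentiviral MUTYH cDNA NNN codon-scan libraries in 10 pg/ml doxycycline, co-transfected with an 8OG:A GFP repair reporter and mCherry. Tile amplicons were sequenced, and per-tile Rosace fitness scores were normalized to a repair function score anchored on synonymous and nonsense distributions. Synonymous medians were set to 0 and nonsense to -1, with variants under 300 counts per million at the start removed.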
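Note: cells sorted at 72 h after reporter transfection.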

| Variant | 8OG:A repair function score |
| --- | --- |
| MRKPRAAVGSGHRKQAASQEGRQKHAKNNSQAKPSACDGLARQPEEVVLQASVSSYHLFRDVAEVTAFRGSLLSWYDQEKRDLPWRRRAEDEMDLDRRAYAVWVSEVMLQQTQVATVINYYTGWMQKWPTLQDLASASLEEVNQLWAGLGYYSRGRKLQEGARKVVEELGGHMPRTAETLQQLLPGVGRYTAGAIASIAFGQATGVVDGNVARVLCRVRAIGADPSSTLVSQQLWGLAQQLVDPARPGDFNQAAMELGATVCTPQRPLCSQCPVESLCRARQRVEQEQLLASGSLSGSPDVEECAPNTGQCHLCLPPSEPWDQTLGVVNFPRKASRKPPREESSATCVLEQPGALGAQILLVQRPNSGLLAGLWEFPSVTWEPSEQLQRKALLQELQRWAGPLPATHLRHLGEVVHTFSHIKLTYQVYGLALEGQTPVTTVPPGARWLTQEEFHTAAVSTAMKKVFRVYQGQQPGTCMGSKRSQVSSPCSRKKPRMGQQVLDNFFRSHISTDAHSLNSAAQ [R157K] | -0.0295 |
| MRKPRAAVGSGHRKQAASQEGRQKHAKNNSQAKPSACDGLARQPEEVVLQASVSSYHLFRDVAEVTAFRGSLLSWYDQEKRDLPWRRRAEDEMDLDRRAYAVWVSEVMLQQTQVATVINYYTGWMQKWPTLQDLASASLEEVNQLWAGLGYYSRGRCLQEGARKVVEELGGHMPRTAETLQQLLPGVGRYTAGAIASIAFGQATGVVDGNVARVLCRVRAIGADPSSTLVSQQLWGLAQQLVDPARPGDFNQAAMELGATVCTPQRPLCSQCPVESLCRARQRVEQEQLLASGSLSGSPDVEECAPNTGQCHLCLPPSEPWDQTLGVVNFPRKASRKPPREESSATCVLEQPGALGAQILLVQRPNSGLLAGLWEFPSVTWEPSEQLQRKALLQELQRWAGPLPATHLRHLGEVVHTFSHIKLTYQVYGLALEGQTPVTTVPPGARWLTQEEFHTAAVSTAMKKVFRVYQGQQPGTCMGSKRSQVSSPCSRKKPRMGQQVLDNFFRSHISTDAHSLNSAAQ [R157C] | -0.297 |
| MRKPRAAVGSGHRKQAASQEGRQKHAKNNSQAKPSACDGLARQPEEVVLQASVSSYHLFRDVAEVTAFRGSLLSWYDQEKRDLPWRRRAEDEMDLDRRAYAVWVSEVMLQQTQVATVINYYTGWMQKWPTLQDLASASLEEVNQLWAGLGYYSRGRMLQEGARKVVEELGGHMPRTAETLQQLLPGVGRYTAGAIASIAFGQATGVVDGNVARVLCRVRAIGADPSSTLVSQQLWGLAQQLVDPARPGDFNQAAMELGATVCTPQRPLCSQCPVESLCRARQRVEQEQLLASGSLSGSPDVEECAPNTGQCHLCLPPSEPWDQTLGVVNFPRKASRKPPREESSATCVLEQPGALGAQILLVQRPNSGLLAGLWEFPSVTWEPSEQLQRKALLQELQRWAGPLPATHLRHLGEVVHTFSHIKLTYQVYGLALEGQTPVTTVPPGARWLTQEEFHTAAVSTAMKKVFRVYQGQQPGTCMGSKRSQVSSPCSRKKPRMGQQVLDNFFRSHISTDAHSLNSAAQ [R157M] | -0.0764 |
| MRKPRAAVGSGHRKQAASQEGRQKHAKNNSQAKPSACDGLARQPEEVVLQASVSSYHLFRDVAEVTAFRGSLLSWYDQEKRDLPWRRRAEDEMDLDRRAYAVWVSEVMLQQTQVATVINYYTGWMQKWPTLQDLASASLEEVNQLWAGLGYYSRGRGLQEGARKVVEELGGHMPRTAETLQQLLPGVGRYTAGAIASIAFGQATGVVDGNVARVLCRVRAIGADPSSTLVSQQLWGLAQQLVDPARPGDFNQAAMELGATVCTPQRPLCSQCPVESLCRARQRVEQEQLLASGSLSGSPDVEECAPNTGQCHLCLPPSEPWDQTLGVVNFPRKASRKPPREESSATCVLEQPGALGAQILLVQRPNSGLLAGLWEFPSVTWEPSEQLQRKALLQELQRWAGPLPATHLRHLGEVVHTFSHIKLTYQVYGLALEGQTPVTTVPPGARWLTQEEFHTAAVSTAMKKVFRVYQGQQPGTCMGSKRSQVSSPCSRKKPRMGQQVLDNFFRSHISTDAHSLNSAAQ [R157G] | -0.381 |
| MRKPRAAVGSGHRKQAASQEGRQKHAKNNSQAKPSACDGLARQPEEVVLQASVSSYHLFRDVAEVTAFRGSLLSWYDQEKRDLPWRRRAEDEMDLDRRAYAVWVSEVMLQQTQVATVINYYTGWMQKWPTLQDLASASLEEVNQLWAGLGYYSRGRILQEGARKVVEELGGHMPRTAETLQQLLPGVGRYTAGAIASIAFGQATGVVDGNVARVLCRVRAIGADPSSTLVSQQLWGLAQQLVDPARPGDFNQAAMELGATVCTPQRPLCSQCPVESLCRARQRVEQEQLLASGSLSGSPDVEECAPNTGQCHLCLPPSEPWDQTLGVVNFPRKASRKPPREESSATCVLEQPGALGAQILLVQRPNSGLLAGLWEFPSVTWEPSEQLQRKALLQELQRWAGPLPATHLRHLGEVVHTFSHIKLTYQVYGLALEGQTPVTTVPPGARWLTQEEFHTAAVSTAMKKVFRVYQGQQPGTCMGSKRSQVSSPCSRKKPRMGQQVLDNFFRSHISTDAHSLNSAAQ [R157I] | -0.517 |
| MRKPRAAVGSGHRKQAASQEGRQKHAKNNSQAKPSACDGLARQPEEVVLQASVSSYHLFRDVAEVTAFRGSLLSWYDQEKRDLPWRRRAEDEMDLDRRAYAVWVSEVMLQQTQVATVINYYTGWMQKWPTLQDLASASLEEVNQLWAGLGYYSRGRDLQEGARKVVEELGGHMPRTAETLQQLLPGVGRYTAGAIASIAFGQATGVVDGNVARVLCRVRAIGADPSSTLVSQQLWGLAQQLVDPARPGDFNQAAMELGATVCTPQRPLCSQCPVESLCRARQRVEQEQLLASGSLSGSPDVEECAPNTGQCHLCLPPSEPWDQTLGVVNFPRKASRKPPREESSATCVLEQPGALGAQILLVQRPNSGLLAGLWEFPSVTWEPSEQLQRKALLQELQRWAGPLPATHLRHLGEVVHTFSHIKLTYQVYGLALEGQTPVTTVPPGARWLTQEEFHTAAVSTAMKKVFRVYQGQQPGTCMGSKRSQVSSPCSRKKPRMGQQVLDNFFRSHISTDAHSLNSAAQ [R157D] | -0.365 |
| MRKPRAAVGSGHRKQAASQEGRQKHAKNNSQAKPSACDGLARQPEEVVLQASVSSYHLFRDVAEVTAFRGSLLSWYDQEKRDLPWRRRAEDEMDLDRRAYAVWVSEVMLQQTQVATVINYYTGWMQKWPTLQDLASASLEEVNQLWAGLGYYSRGRNLQEGARKVVEELGGHMPRTAETLQQLLPGVGRYTAGAIASIAFGQATGVVDGNVARVLCRVRAIGADPSSTLVSQQLWGLAQQLVDPARPGDFNQAAMELGATVCTPQRPLCSQCPVESLCRARQRVEQEQLLASGSLSGSPDVEECAPNTGQCHLCLPPSEPWDQTLGVVNFPRKASRKPPREESSATCVLEQPGALGAQILLVQRPNSGLLAGLWEFPSVTWEPSEQLQRKALLQELQRWAGPLPATHLRHLGEVVHTFSHIKLTYQVYGLALEGQTPVTTVPPGARWLTQEEFHTAAVSTAMKKVFRVYQGQQPGTCMGSKRSQVSSPCSRKKPRMGQQVLDNFFRSHISTDAHSLNSAAQ [R157N] | 0.023 |
| MRKPRAAVGSGHRKQAASQEGRQKHAKNNSQAKPSACDGLARQPEEVVLQASVSSYHLFRDVAEVTAFRGSLLSWYDQEKRDLPWRRRAEDEMDLDRRAYAVWVSEVMLQQTQVATVINYYTGWMQKWPTLQDLASASLEEVNQLWAGLGYYSRGRLLQEGARKVVEELGGHMPRTAETLQQLLPGVGRYTAGAIASIAFGQATGVVDGNVARVLCRVRAIGADPSSTLVSQQLWGLAQQLVDPARPGDFNQAAMELGATVCTPQRPLCSQCPVESLCRARQRVEQEQLLASGSLSGSPDVEECAPNTGQCHLCLPPSEPWDQTLGVVNFPRKASRKPPREESSATCVLEQPGALGAQILLVQRPNSGLLAGLWEFPSVTWEPSEQLQRKALLQELQRWAGPLPATHLRHLGEVVHTFSHIKLTYQVYGLALEGQTPVTTVPPGARWLTQEEFHTAAVSTAMKKVFRVYQGQQPGTCMGSKRSQVSSPCSRKKPRMGQQVLDNFFRSHISTDAHSLNSAAQ [R157L] | -0.141 |
| MRKPRAAVGSGHRKQAASQEGRQKHAKNNSQAKPSACDGLARQPEEVVLQASVSSYHLFRDVAEVTAFRGSLLSWYDQEKRDLPWRRRAEDEMDLDRRAYAVWVSEVMLQQTQVATVINYYTGWMQKWPTLQDLASASLEEVNQLWAGLGYYSRGRHLQEGARKVVEELGGHMPRTAETLQQLLPGVGRYTAGAIASIAFGQATGVVDGNVARVLCRVRAIGADPSSTLVSQQLWGLAQQLVDPARPGDFNQAAMELGATVCTPQRPLCSQCPVESLCRARQRVEQEQLLASGSLSGSPDVEECAPNTGQCHLCLPPSEPWDQTLGVVNFPRKASRKPPREESSATCVLEQPGALGAQILLVQRPNSGLLAGLWEFPSVTWEPSEQLQRKALLQELQRWAGPLPATHLRHLGEVVHTFSHIKLTYQVYGLALEGQTPVTTVPPGARWLTQEEFHTAAVSTAMKKVFRVYQGQQPGTCMGSKRSQVSSPCSRKKPRMGQQVLDNFFRSHISTDAHSLNSAAQ [R157H] | -0.0973 |
| MRKPRAAVGSGHRKQAASQEGRQKHAKNNSQAKPSACDGLARQPEEVVLQASVSSYHLFRDVAEVTAFRGSLLSWYDQEKRDLPWRRRAEDEMDLDRRAYAVWVSEVMLQQTQVATVINYYTGWMQKWPTLQDLASASLEEVNQLWAGLGYYSRGRFLQEGARKVVEELGGHMPRTAETLQQLLPGVGRYTAGAIASIAFGQATGVVDGNVARVLCRVRAIGADPSSTLVSQQLWGLAQQLVDPARPGDFNQAAMELGATVCTPQRPLCSQCPVESLCRARQRVEQEQLLASGSLSGSPDVEECAPNTGQCHLCLPPSEPWDQTLGVVNFPRKASRKPPREESSATCVLEQPGALGAQILLVQRPNSGLLAGLWEFPSVTWEPSEQLQRKALLQELQRWAGPLPATHLRHLGEVVHTFSHIKLTYQVYGLALEGQTPVTTVPPGARWLTQEEFHTAAVSTAMKKVFRVYQGQQPGTCMGSKRSQVSSPCSRKKPRMGQQVLDNFFRSHISTDAHSLNSAAQ [R157F] | -0.0928 |
| MRKPRAAVGSGHRKQAASQEGRQKHAKNNSQAKPSACDGLARQPEEVVLQASVSSYHLFRDVAEVTAFRGSLLSWYDQEKRDLPWRRRAEDEMDLDRRAYAVWVSEVMLQQTQVATVINYYTGWMQKWPTLQDLASASLEEVNQLWAGLGYYSRGRALQEGARKVVEELGGHMPRTAETLQQLLPGVGRYTAGAIASIAFGQATGVVDGNVARVLCRVRAIGADPSSTLVSQQLWGLAQQLVDPARPGDFNQAAMELGATVCTPQRPLCSQCPVESLCRARQRVEQEQLLASGSLSGSPDVEECAPNTGQCHLCLPPSEPWDQTLGVVNFPRKASRKPPREESSATCVLEQPGALGAQILLVQRPNSGLLAGLWEFPSVTWEPSEQLQRKALLQELQRWAGPLPATHLRHLGEVVHTFSHIKLTYQVYGLALEGQTPVTTVPPGARWLTQEEFHTAAVSTAMKKVFRVYQGQQPGTCMGSKRSQVSSPCSRKKPRMGQQVLDNFFRSHISTDAHSLNSAAQ [R157A] | -0.14 |
| MRKPRAAVGSGHRKQAASQEGRQKHAKNNSQAKPSACDGLARQPEEVVLQASVSSYHLFRDVAEVTAFRGSLLSWYDQEKRDLPWRRRAEDEMDLDRRAYAVWVSEVMLQQTQVATVINYYTGWMQKWPTLQDLASASLEEVNQLWAGLGYYSRGRELQEGARKVVEELGGHMPRTAETLQQLLPGVGRYTAGAIASIAFGQATGVVDGNVARVLCRVRAIGADPSSTLVSQQLWGLAQQLVDPARPGDFNQAAMELGATVCTPQRPLCSQCPVESLCRARQRVEQEQLLASGSLSGSPDVEECAPNTGQCHLCLPPSEPWDQTLGVVNFPRKASRKPPREESSATCVLEQPGALGAQILLVQRPNSGLLAGLWEFPSVTWEPSEQLQRKALLQELQRWAGPLPATHLRHLGEVVHTFSHIKLTYQVYGLALEGQTPVTTVPPGARWLTQEEFHTAAVSTAMKKVFRVYQGQQPGTCMGSKRSQVSSPCSRKKPRMGQQVLDNFFRSHISTDAHSLNSAAQ [R157E] | -0.665 |
